The supplement of paper PMC7877785
± gives the uncertainty stated by the source.

Assay: self-splicing fitness, log relative to wild type (ln ratio); higher = more splicing; Tetrahymena group I intron in knt gene, E. coli kanamycin selection, DiMSum; sequences stand for … in CUCUCU…GGAGGGAAAAGUUAUCAGGCAUGCACCUGGUAGCUAGUCUUUAAACCAAUAGAUUGCAUCGGUUUAAAAGGCAAGACCGUCAAAUUGCGGGAAAGGGGUCAACAGCCGUUCAGUACCAAGUCUCAGGGGAAACUUUGAGAUGGCCUUGCAAAGGGUAUGGUAAUAAGCUGACGGACAUGGUCCUAACCACGCAGCCAAGUCCUAAGUCAACAGAUCUUCUGUUGAUAUGGAUGCAGUUCACAGACUAAAUGUCGGUCGGGGAAGAUGUAUUCUUCUCAUAAGAUAUAGUCGGACCUCUCCUUAAUGGGAGCUAGCGGAUGAAGUGAUGCAACACUGGAGCCGCUGGGAACUAAUUUGUAUGCGAAAGUAUAUUGAUUAGUUUUGGAGUACUCGUGGUCG
In short: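 The eight P1ex-region nucleotides of an intron in the knt kanamycin-resistance gene on pET-22b(+) were all randomised and the library put into E. coli BL21(DE3). Six replicate transformations were grown overnight at 37°C or 30°C on LB agar with or without 25 μg/mL kanamycin, together with 100 μg/mL carbenicillin, 50 μM IPTG and 0.2% rhamnose. Colonies were pooled and amplicon-sequenced on an Illumina HiSeq 2500. Fitness from DiMSum is the error-weighted combination of wild-type-normalised replicate fold changes, kanamycin over none.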

Row | Sequence | self-splicing fitness (ln) (30 °C) | self-splicing fitness (ln) (37 °C)
1 | GCCGAGCAAUAUUACGGUGU | -2.57 ± 0.11 | -0.986 ± 0.11
2 | GCCGAGCAAUAUUACGUAUU | -3.72 ± 0.21 | -1.9 ± 0.15
3 | GCCGAGCAAUAUUACGUCCG | -3.69 ± 0.28 | -2.87 ± 0.29
4 | GCCGAGCAAUAUUACGUGAG | -1.23 ± 0.09 | -0.333 ± 0.12
5 | GCCGAGCAAUAUUACGUGUC | -3.23 ± 0.14 | -1.64 ± 0.12
6 | GCCGAGCAAUAUUACGUUGA | -3 ± 0.16 | -2.88 ± 0.2
7 | GCCGAGCAAUAUUACGUUUC | -3.12 ± 0.14 | -2.28 ± 0.15
8 | GCCUAGCAAUAUUACGAAGA | -1.82 ± 0.24 | -0.65 ± 0.12
9 | GCCUAGCAAUAUUACGACUA | – | -1.93 ± 0.38
10 | GCCUAGCAAUAUUACGAGCA | -2.26 ± 0.33 | -0.418 ± 0.17
11 | GCCUAGCAAUAUUACGCACA | -0.975 ± 0.12 | -0.604 ± 0.13
12 | GCCUAGCAAUAUUACGCAUU | -0.686 ± 0.051 | -0.35 ± 0.062
13 | GCCUAGCAAUAUUACGCCAC | -2.82 ± 0.26 | -2.2 ± 0.23
14 | GCCUAGCAAUAUUACGCGAC | -1.92 ± 0.19 | -1.05 ± 0.27
15 | GCCUAGCAAUAUUACGCGAG | -2.33 ± 0.21 | -2.29 ± 0.16
16 | GCCUAGCAAUAUUACGCGGA | -0.245 ± 0.08 | 0.226 ± 0.093
17 | GCCUAGCAAUAUUACGCUAC | -2.7 ± 0.21 | -2.81 ± 0.36
18 | GCCUAGCAAUAUUACGCUGU | -0.847 ± 0.09 | 0.254 ± 0.096
19 | GCCUAGCAAUAUUACGGAAC | -0.183 ± 0.091 | 0.0968 ± 0.16
20 | GCCUAGCAAUAUUACGGACG | -1.98 ± 0.2 | -0.148 ± 0.18
21 | GCCUAGCAAUAUUACGGAGU | -0.965 ± 0.085 | -0.198 ± 0.094
22 | GCCUAGCAAUAUUACGGAUC | -0.351 ± 0.12 | -0.096 ± 0.16
23 | GCCUAGCAAUAUUACGGGGU | -3.83 ± 0.19 | -2.19 ± 0.19
24 | GCCUAGCAAUAUUACGUACA | -2.54 ± 0.14 | -1.7 ± 0.13
25 | GCCUAGCAAUAUUACGUACC | -1.18 ± 0.099 | -0.205 ± 0.12

Row | Sequence | self-splicing fitness (ln) (30 °C) | self-splicing fitness (ln) (37 °C)
26 | GCCUAGCAAUAUUACGUAGC | -0.323 ± 0.11 | -0.445 ± 0.11
27 | GCCUAGCAAUAUUACGUAGG | -3.69 ± 0.18 | -2.93 ± 0.25
28 | GCCUAGCAAUAUUACGUAGU | -0.126 ± 0.068 | 0.357 ± 0.088
29 | GCCUAGCAAUAUUACGUAUG | -3.92 ± 0.16 | -2.61 ± 0.13
30 | GCCUAGCAAUAUUACGUAUU | -1.83 ± 0.098 | -1.73 ± 0.14
31 | GCCUAGCAAUAUUACGUCCA | -2.37 ± 0.18 | -1.38 ± 0.18
32 | GCCUAGCAAUAUUACGUCUC | -0.71 ± 0.064 | -0.518 ± 0.086
33 | GCCUAGCAAUAUUACGUGUG | -1.85 ± 0.057 | -0.937 ± 0.065
34 | GCGAAGCAAUAUUACGAAGA | -2.14 ± 0.22 | -0.931 ± 0.21
35 | GCGAAGCAAUAUUACGACGU | -2.69 ± 0.21 | -2.02 ± 0.2
36 | GCGAAGCAAUAUUACGAGAU | -2.89 ± 0.2 | -1.86 ± 0.22
37 | GCGAAGCAAUAUUACGAGUC | -2.93 ± 0.13 | -2.33 ± 0.21
38 | GCGAAGCAAUAUUACGCAAU | -3.2 ± 0.2 | -2.07 ± 0.19
39 | GCGAAGCAAUAUUACGCGUA | -2.03 ± 0.16 | -0.565 ± 0.13
40 | GCGAAGCAAUAUUACGGAAG | -2.62 ± 0.18 | -1.93 ± 0.16
41 | GCGAAGCAAUAUUACGGACU | -0.302 ± 0.12 | 0.296 ± 0.13
42 | GCGAAGCAAUAUUACGGAGG | -2.1 ± 0.18 | -0.467 ± 0.12
43 | GCGAAGCAAUAUUACGGCGC | -2.48 ± 0.29 | -1.01 ± 0.43
44 | GCGAAGCAAUAUUACGGCGG | -2.38 ± 0.19 | -1.34 ± 0.27
45 | GCGAAGCAAUAUUACGGUAA | -2.4 ± 0.15 | -1.65 ± 0.12
46 | GCGAAGCAAUAUUACGGUGC | -3.75 ± 0.18 | -2.95 ± 0.18
47 | GCGAAGCAAUAUUACGUAAU | -1.22 ± 0.097 | -1.07 ± 0.11
48 | GCGAAGCAAUAUUACGUACG | -2.46 ± 0.37 | -2.24 ± 0.34
49 | GCGCAGCAAUAUUACGAAGC | -2.98 ± 0.25 | -2.37 ± 0.18
50 | GCGCAGCAAUAUUACGAAGU | -0.905 ± 0.13 | -0.493 ± 0.16

Row | Sequence | self-splicing fitness (ln) (30 °C) | self-splicing fitness (ln) (37 °C)
51 | GCGCAGCAAUAUUACGACAC | -0.738 ± 0.38 | –
52 | GCGCAGCAAUAUUACGACCA | -1.56 ± 0.25 | -0.19 ± 0.23
53 | GCGCAGCAAUAUUACGAGCA | -3.48 ± 0.21 | -1.11 ± 0.14
54 | GCGCAGCAAUAUUACGAGUA | -2.36 ± 0.11 | -0.845 ± 0.096
55 | GCGCAGCAAUAUUACGAUUC | -0.291 ± 0.09 | 0.1 ± 0.1
56 | GCGCAGCAAUAUUACGCAAA | -1.8 ± 0.087 | -0.777 ± 0.078
57 | GCGCAGCAAUAUUACGCAAG | -3.82 ± 0.23 | -2.52 ± 0.15
58 | GCGCAGCAAUAUUACGCAUC | -0.685 ± 0.092 | -0.339 ± 0.098
59 | GCGCAGCAAUAUUACGCCAA | – | -1.42 ± 0.47
60 | GCGCAGCAAUAUUACGCGAA | -0.172 ± 0.065 | -0.153 ± 0.083
61 | GCGCAGCAAUAUUACGCUAG | -3.26 ± 0.28 | -2.15 ± 0.33
62 | GCGCAGCAAUAUUACGCUGC | – | -3.59 ± 0.43
63 | GCGCAGCAAUAUUACGGAUA | -1.98 ± 0.16 | -0.989 ± 0.13
64 | GCGCAGCAAUAUUACGGCUU | 0.000989 ± 0.11 | 0.531 ± 0.15
65 | GCGCAGCAAUAUUACGGGAC | -2.13 ± 0.097 | 0.393 ± 0.096
66 | GCGCAGCAAUAUUACGGUCG | -2.26 ± 0.23 | -1.81 ± 0.22
67 | GCGCAGCAAUAUUACGUAGA | -2.28 ± 0.1 | -0.72 ± 0.099
68 | GCGCAGCAAUAUUACGUAUC | -0.438 ± 0.068 | -0.609 ± 0.085
69 | GCGCAGCAAUAUUACGUCCA | -1.63 ± 0.12 | -0.0959 ± 0.18
70 | GCGCAGCAAUAUUACGUGCU | -4.09 ± 0.2 | -2.87 ± 0.23
71 | GCGCAGCAAUAUUACGUGUG | -3.2 ± 0.12 | -2.65 ± 0.15
72 | GCGCAGCAAUAUUACGUUAA | -1.45 ± 0.089 | -0.728 ± 0.088
73 | GCGCAGCAAUAUUACGUUCA | -0.782 ± 0.098 | 0.151 ± 0.1
74 | GCGCAGCAAUAUUACGUUGA | -0.0364 ± 0.078 | -0.504 ± 0.085
75 | GCGGAGCAAUAUUACGACAC | -0.913 ± 0.22 | –

Row | Sequence | self-splicing fitness (ln) (30 °C) | self-splicing fitness (ln) (37 °C)
76 | GCGGAGCAAUAUUACGACCA | – | -1.68 ± 0.41
77 | GCGGAGCAAUAUUACGACUU | -0.726 ± 0.15 | -1.48 ± 0.29
78 | GCGGAGCAAUAUUACGCAUA | -2.55 ± 0.49 | -2.74 ± 0.36
79 | GCGGAGCAAUAUUACGCUCA | -0.528 ± 0.3 | -0.54 ± 0.26
80 | GCGGAGCAAUAUUACGCUGA | -3.01 ± 0.35 | –
81 | GCGGAGCAAUAUUACGCUUA | – | 1.64 ± 0.37
82 | GCGGAGCAAUAUUACGGACU | -3.06 ± 0.35 | -0.993 ± 0.19
83 | GCGGAGCAAUAUUACGGGUU | -4.22 ± 0.29 | -1.49 ± 0.14
84 | GCGGAGCAAUAUUACGGUUA | -2.84 ± 0.29 | -0.698 ± 0.21
85 | GCGGAGCAAUAUUACGUCGU | -4.11 ± 0.35 | -2.24 ± 0.36
86 | GCGGAGCAAUAUUACGUUCA | -0.896 ± 0.11 | -0.33 ± 0.096
87 | GCGUAGCAAUAUUACGAAGG | – | -2.27 ± 0.5
88 | GCGUAGCAAUAUUACGACUG | -1.54 ± 0.17 | -0.415 ± 0.17
89 | GCGUAGCAAUAUUACGAGGG | -3.37 ± 0.16 | -1.96 ± 0.17
90 | GCGUAGCAAUAUUACGAUCC | -2.41 ± 0.13 | -0.852 ± 0.15
91 | GCGUAGCAAUAUUACGAUUA | -0.494 ± 0.082 | 0.608 ± 0.085
92 | GCGUAGCAAUAUUACGCAAA | -2.37 ± 0.33 | -3.44 ± 0.42
93 | GCGUAGCAAUAUUACGCCCG | – | 0.544 ± 0.44
94 | GCGUAGCAAUAUUACGCCUA | -1.76 ± 0.45 | -1.07 ± 0.35
95 | GCGUAGCAAUAUUACGCGAG | – | -2.54 ± 0.27
96 | GCGUAGCAAUAUUACGGAGG | -3.61 ± 0.23 | -1.98 ± 0.18
97 | GCGUAGCAAUAUUACGGGCG | -2.97 ± 0.22 | -2.09 ± 0.22
98 | GCGUAGCAAUAUUACGGGUU | -2.12 ± 0.12 | -1.32 ± 0.15
